Experimental data taken from patent US20090068637A1 (published 2009).

Legend:
[1] = target: T1, HA of H5N1 virus strain HN1 (avian influenza virus H5N1); test: cell-based or functional assay
[2] = target: T2, HA of H5N1 virus strain VTM2 (avian influenza virus H5N1); test: cell-based or functional assay
[3] = target: T3, HA of H5N1 virus strain MB2 (avian influenza virus H5N1); test: cell-based or functional assay
[4] = target: T4, HA of H5N1 virus strain MIX1 (avian influenza virus H5N1); test: cell-based or functional assay
[5] = target: T5, HA of H5N1 virus strain VNM2.1 (avian influenza virus H5N1); test: cell-based or functional assay
[6] = target: T6, HA of H5N1 virus strain MIX2 (avian influenza virus H5N1); test: cell-based or functional assay
[7] = target: T7, HA of H5N1 virus strain GD1 (avian influenza virus H5N1); test: cell-based or functional assay
[8] = target: T8, HA of H5N1 virus strain IDN4 (avian influenza virus H5N1); test: cell-based or functional assay
[9] = target: T9, HA of H5N1 virus strain GD2 (avian influenza virus H5N1); test: cell-based or functional assay
[10] = target: T10, HA of H5N1 virus strain MIX3 (avian influenza virus H5N1); test: cell-based or functional assay
[11] = target: T11, HA of H5N1 virus strain VTM4 (avian influenza virus H5N1); test: cell-based or functional assay
[12] = target: T12, HA of H5N1 virus strain IDN2 (avian influenza virus H5N1); test: cell-based or functional assay
[13] = target: T13, HA of H5N1 virus strain MB1 (avian influenza virus H5N1); test: cell-based or functional assay
[14] = target: T14, HA of H5N1 virus strain GD3 (avian influenza virus H5N1); test: cell-based or functional assay
[15] = target: T15, HA of H5N1 virus strain IDN5 (avian influenza virus H5N1); test: cell-based or functional assay
[16] = target: T16, HA of H5N1 virus strain IDN1.1 (avian influenza virus H5N1); test: cell-based or functional assay
[17] = target: T17, HA of H5N1 virus strain VTM1.1 (avian influenza virus H5N1); test: cell-based or functional assay
[18] = target: T18, HA of H5N1 virus strain VTM3 (avian influenza virus H5N1); test: cell-based or functional assay
[19] = target: T19, HA of H5N1 virus strain IDN3 (avian influenza virus H5N1); test: cell-based or functional assay
[20] = target: T20, HA of H5N1 virus strain YN1 (avian influenza virus H5N1); test: cell-based or functional assay
[21] = target: T21, HA of H5N1 virus strain HN2 (avian influenza virus H5N1); test: cell-based or functional assay
[22] = target: T22, fusion protein HBc-D123 (HBV); test: ELISA, fusion protein coated at 10 ug/ml
T22 chain: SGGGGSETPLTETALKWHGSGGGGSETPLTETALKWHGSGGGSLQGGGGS

[23] = target: T23, fusion protein HBc-D125 (HBV); test: ELISA, fusion protein coated at 10 ug/ml
T23 chain: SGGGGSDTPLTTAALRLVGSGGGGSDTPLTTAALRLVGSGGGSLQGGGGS

[24] = target: T1, HA of H5N1 virus strain HN1; test: cell-based or functional assay; remark: listed apart in the source
[25] = target: T2, HA of H5N1 virus strain VTM2; test: cell-based or functional assay; remark: listed apart in the source
[26] = target: T3, HA of H5N1 virus strain MB2; test: cell-based or functional assay; remark: listed apart in the source
[27] = target: T4, HA of H5N1 virus strain MIX1; test: cell-based or functional assay; remark: listed apart in the source
[28] = target: T5, HA of H5N1 virus strain VNM2.1; test: cell-based or functional assay; remark: listed apart in the source
[29] = target: T6, HA of H5N1 virus strain MIX2; test: cell-based or functional assay; remark: listed apart in the source
[30] = target: T7, HA of H5N1 virus strain GD1; test: cell-based or functional assay; remark: listed apart in the source
[31] = target: T8, HA of H5N1 virus strain IDN4; test: cell-based or functional assay; remark: listed apart in the source
[32] = target: T9, HA of H5N1 virus strain GD2; test: cell-based or functional assay; remark: listed apart in the source
[33] = target: T10, HA of H5N1 virus strain MIX3; test: cell-based or functional assay; remark: listed apart in the source
[34] = target: T11, HA of H5N1 virus strain VTM4; test: cell-based or functional assay; remark: listed apart in the source
[35] = target: T12, HA of H5N1 virus strain IDN2; test: cell-based or functional assay; remark: listed apart in the source
[36] = target: T13, HA of H5N1 virus strain MB1; test: cell-based or functional assay; remark: listed apart in the source
[37] = target: T14, HA of H5N1 virus strain GD3; test: cell-based or functional assay; remark: listed apart in the source
[38] = target: T15, HA of H5N1 virus strain IDN5; test: cell-based or functional assay; remark: listed apart in the source
[39] = target: T16, HA of H5N1 virus strain IDN1.1; test: cell-based or functional assay; remark: listed apart in the source
[40] = target: T17, HA of H5N1 virus strain VTM1.1; test: cell-based or functional assay; remark: listed apart in the source
[41] = target: T18, HA of H5N1 virus strain VTM3; test: cell-based or functional assay; remark: listed apart in the source
[42] = target: T19, HA of H5N1 virus strain IDN3; test: cell-based or functional assay; remark: listed apart in the source
[43] = target: T20, HA of H5N1 virus strain YN1; test: cell-based or functional assay; remark: listed apart in the source
[44] = target: T21, HA of H5N1 virus strain HN2; test: cell-based or functional assay; remark: listed apart in the source
[45] = target: T24, fusion protein HBc-128 (HBV); test: indirect ELISA, fusion protein coated at 10 ug/ml, 12 mAb tested
T24 chain: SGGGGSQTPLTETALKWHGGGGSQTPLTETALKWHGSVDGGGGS

[46] = target: T25, fusion protein HBc-122 (HBV); test: as above
T25 chain: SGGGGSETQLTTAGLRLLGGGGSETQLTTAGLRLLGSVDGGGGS

[47] = target: T26, fusion protein HBc-124 (HBV); test: as above
T26 chain: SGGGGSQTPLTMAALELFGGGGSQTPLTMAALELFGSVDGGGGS

B1: monoclonal antibody 8H5 (antibody, V domains shown)
VH: QVQLQQSGAELMKPGASVKISCKATGYTFSNYWIEWIKQRPGHGLEWIGEILPGSDRTNYNGKFKGKATFTADTSSNTAHMQLSSLTSEDSAVYYCANRYDGYYFGLDYWGQGTSVAVSS
VL: EIVLTQSPAIMSASLGEKVTMSCRASSSVNFVYWYQQRSDASPKLLIYYSSNLAPGVPPRFSGSGSGNSYSLTISGLEGEDAATYYCQHFTSSPYTFGGGTNLEIKR
B1 showed a Neutralization titer [1] of 12800 titer, a Neutralization titer [2] of 800 titer and a Neutralization titer [3] of 12800 titer. The Neutralization titer [4] was 12800 titer, the Neutralization titer [5] was 3200 titer and the Neutralization titer [6] was 6400 titer. It also gave a Neutralization titer [7] of 12800 titer, a Neutralization titer [8] of 12800 titer and a Neutralization titer [9] of 12800 titer. The Neutralization titer [10] was 12800 titer, the Neutralization titer [11] was 1600 titer and the Neutralization titer [12] was 6400 titer. It also gave a Neutralization titer [13] of 6400 titer, a Neutralization titer [14] of 12800 titer and a Neutralization titer [15] of 6400 titer. The Neutralization titer [16] was 12800 titer, the Neutralization titer [17] was 1600 titer and the Neutralization titer [18] was 12800 titer. For the same binder, the Neutralization titer [19] was 12800 titer, the Neutralization titer [20] was 6400 titer and the Neutralization titer [21] was 6400 titer. For the same binder, the binding result [22] was “binds”, the binding result [23] was “binds” and the HI titer [24] was 12800 titer. It also gave an HI titer [25] of 6400 titer, an HI titer [26] of 6400 titer and an HI titer [27] of 12800 titer. The HI titer [28] was 6400 titer, the HI titer [29] was 6400 titer and the HI titer [30] was 12800 titer. The HI titer [31] was 12800 titer, the HI titer [32] was 12800 titer and the HI titer [33] was 12800 titer. The HI titer [34] was 1600 titer, the HI titer [35] was 1600 titer and the HI titer [36] was 3200 titer. It also gave an HI titer [37] of 12800 titer, an HI titer [38] of 6400 titer and an HI titer [39] of 12800 titer. It also gave an HI titer [40] of 12800 titer, an HI titer [41] of 6400 titer and an HI titer [42] of 3200 titer. The HI titer [43] was 3200 titer, the HI titer [44] was 3200 titer and the binding result [45] was “binds”. B1: binds [46]; binds [47].

B2: monoclonal antibody 2F2 (antibody, V domains shown)
VH: QVQLKESGPGLVAPSQRLSITCTVSGFSLTGYGVHWIRQSPGKGLEWLGMIWAEGRTDYNSVLKSRLSINKDNSRSQVFLEMNSLQTDDTARYYCAREVITTEAWYFDVWGQGTSVTES
VL: DIVMTQSPATLSVTPGDRVSLSCRASQSISDYLYWYQQKSHESPRLLIKYASQSISGIPSRFSGSGSGSDFTLTINSVEPEDVGMYYCQNGHTFPLTFGAGTKLEIKR
For B2, the Neutralization titer [1] was 12800 titer, the Neutralization titer [2] was 12800 titer and the Neutralization titer [3] was 12800 titer. For the same binder, the Neutralization titer [4] was 100 titer, the Neutralization titer [5] was 12800 titer and the Neutralization titer [6] was 100 titer. The Neutralization titer [7] was 12800 titer, the Neutralization titer [8] was 12800 titer and the Neutralization titer [9] was 12800 titer. For the same binder, the Neutralization titer [10] was 12800 titer, the Neutralization titer [11] was 12800 titer and the Neutralization titer [12] was 12800 titer. It also gave a Neutralization titer [14] of 12800 titer, a Neutralization titer [15] of 12800 titer and a Neutralization titer [16] of 12800 titer. For the same binder, the Neutralization titer [17] was 1600 titer, the Neutralization titer [18] was 12800 titer and the Neutralization titer [21] was 12800 titer. For the same binder, the HI titer [24] was 6400 titer, the HI titer [25] was 3200 titer and the HI titer [26] was 6400 titer. For the same binder, the HI titer [27] was under 100 titer, the HI titer [28] was 200 titer and the HI titer [29] was under 100 titer. For the same binder, the HI titer [30] was 12800 titer, the HI titer [31] was 12800 titer and the HI titer [32] was 12800 titer. It also gave an HI titer [33] of 12800 titer, an HI titer [34] of 6400 titer and an HI titer [35] of 800 titer. The HI titer [36] was under 100 titer, the HI titer [37] was 12800 titer and the HI titer [38] was 12800 titer. The HI titer [39] was 12800 titer, the HI titer [40] was 12800 titer and the HI titer [41] was 12800 titer. It also gave an HI titer [42] of 1600 titer, an HI titer [43] of 800 titer and an HI titer [44] of 1600 titer.
